According to article PMC4301871 (2015):
“And” between values parts separate entries of the source, which are not always exact repeats. Equal values may be shown once. Each block holds one binder with its values, some of them ahead of it.

Tests used:
Test in all cases: ITC
LATS2 = biological target: T1, LATS2 (Homo sapiens)
T1 chain: RRCPPPPYPKHL

LATS1-b = biological target: T2, LATS1-b (Homo sapiens)
T2 chain: YQGPPPPYPKHL

PTCH1-a = biological target: T3, PTCH1-a (Homo sapiens)
T3 chain: RYSPPPPYSSHS

PTCH1-b = biological target: T4, PTCH1-b (Homo sapiens)
T4 chain: EGLWPPPYRPRR

LATS1-a = biological target: T5, LATS1-a (Homo sapiens)
T5 chain: NRQPPPPYPLTA

Kd (LATS2): 7.1 µM
Kd (LATS1-b): 3.7 µM
Kd (PTCH1-a): 27.6 µM
Kd (PTCH1-b): 13.2 µM
Kd (LATS1-a): 21.5 µM
Binder: FEIPDDVPLPAGWEMAKTSSGQRYFLNHIDQTTTWQDPRKAMLSQ [YAP-WW1 165-209]

Kd (LATS2): 8.2 µM
Kd (LATS1-b): 33.9 µM
Kd (PTCH1-a): 45.8 µM
Kd (LATS1-a): 27 µM
Binder: ASGPLPDGWEQAMTQDGEIYYINHKNKTTSWLDPRLDPRFAMNQ [YAP-WW2 228-271]

Kd (LATS2): 9.2 µM
Kd (PTCH1-a): 47.4 µM and 24.7 µM
Kd (PTCH1-b): 16.9 µM
Kd (LATS1-a): 33.4 µM
B1: YAP-WW1-WW2 165-271 (protein)
chain: FEIPDDVPLPAGWEMAKTSSGQRYFLNHIDQTTTWQDPRKAMLSQMNVTAPTSPPVQQNMMNSASGPLPDGWEQAMTQDGEIYYINHKNKTTSWLDPRLDPRFAMNQ
